These results are taken from patent US20060241048A1.

Test [1] deals with bovine serum albumin (BSA) (bovine) (UniProt P02769). As to the kind of experiment: cell-based or functional assay.
Test [2] concerns the target C5b-8 and C5b-9 complexes (human). The test is described as follows: cell-based or functional assay.

Sequence of UniProt P02769 (P02769 25-607 limits assumed): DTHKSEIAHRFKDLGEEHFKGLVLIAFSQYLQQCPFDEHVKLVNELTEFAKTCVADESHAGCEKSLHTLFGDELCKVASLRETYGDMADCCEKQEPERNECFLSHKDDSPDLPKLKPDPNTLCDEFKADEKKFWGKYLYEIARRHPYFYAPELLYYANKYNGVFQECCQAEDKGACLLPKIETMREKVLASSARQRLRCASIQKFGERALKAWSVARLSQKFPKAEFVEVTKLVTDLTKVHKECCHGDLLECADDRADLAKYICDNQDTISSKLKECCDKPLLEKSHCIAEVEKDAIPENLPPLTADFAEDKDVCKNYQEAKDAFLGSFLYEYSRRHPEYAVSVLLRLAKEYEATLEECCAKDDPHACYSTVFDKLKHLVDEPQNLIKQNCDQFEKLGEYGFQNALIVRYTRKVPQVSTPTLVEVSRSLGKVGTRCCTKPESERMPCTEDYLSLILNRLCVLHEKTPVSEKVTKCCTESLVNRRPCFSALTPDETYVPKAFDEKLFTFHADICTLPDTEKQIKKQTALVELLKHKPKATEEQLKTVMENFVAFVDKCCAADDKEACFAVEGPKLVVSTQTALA

Consider “APT070, [SCR1-3]-Cys-S-S-[MSWP-1] (from UniProt P17927 42-237)”, for which, in test [1], the IH50 (nM) of inhibition of haemolysis, Presence of Albumin (40 mg/ml) [absence of albumin: 0.26 at the 11th table, row 9, column 3] worked out at 10 nM.

On to “APT070, [SCR1-3]-Cys-S-S-[MSWP-1] (from UniProt P17927 42-237) (other; unit assumed)”, for which, in test [1], the IH50 of inhibition of haemolysis, 4 mg/ml BSA [No BSA: 0.26 at the 13th table, row 8, column 3] amounted to 1.3 nM and the IH50 of inhibition of haemolysis, 40 mg/ml BSA [No BSA: 0.26 at the 13th table, row 8, column 3] stood at 10 nM.

B1: Recombinant human CD59 (lacking the GPI anchor), with an amino-terminal methionine and a carboxy-terminal cysteine (APT2439) (protein)
chain: MLQCYNCPNPTADCKTAVNCSSDFDACLITKAGLQVYNKCWKFEHCNFNDVTTRLRENELTYYCCKKDLCNFNEQLENC
As to B1, in test [2], the IH50 (nM), reactive lysis of guinea pig erythrocytes, Absence of HSA was 600 nM and the IH50 (nM), reactive lysis of guinea pig erythrocytes, Presence of HSA (2.7 mg/ml) was 400 nM.

B2: APT3073, conjugate of APT2439 and APT2258 via a disulphide (protein, human)
chain: B1 chain
peptide: GSSKSPSKKDDKKPGDC
modifications: N-terminal myristoyl (Myr-); C-terminal amide (-NH2); Cys (2-SPy before conjugation) disulphide-linked to CD59; carboxy-terminal Cys disulphide-linked to APT2258
Take B2: in test [2], the IH50 (nM), reactive lysis of guinea pig erythrocytes, Absence of HSA is 0.8 nM and the IH50 (nM), reactive lysis of guinea pig erythrocytes, Presence of HSA (2.7 mg/ml) worked out at 6 nM.

B3: APT3280, conjugate of APT2439 and APT3146 via a disulphide (protein, human)
chain: B1 chain
peptide: KSSKSPSKKDDKKPGDC
modifications: bisMyr at the N-terminal Lys; Cys (thiopyridylated before conjugation) disulphide-linked to CD59; carboxy-terminal Cys disulphide-linked to APT3146
Turning to B3, in test [2], the IH50 (nM), reactive lysis of guinea pig erythrocytes, Absence of HSA was 0.1 nM and the IH50 (nM), reactive lysis of guinea pig erythrocytes, Presence of HSA (2.7 mg/ml) turned out to be 0.08 nM.
